Experimental data as given in the supplement of paper PMC10567573.

B1: KIAA0774 (parent)
chain: FEDEVKRLGWQQQAELQELEERLQ

Variants of: B1
Assay: protein stability index of a GFP-peptide fusion (GPS, HEK-293T) (PSI 1-6); higher = more stable
Settings: c terminus: a fixed tail appended
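Also: lentivirally expressed fusions sorted by FACS into six bins by GFP to DsRed ratio, PSI derived from sequencing read proportions per bin multiplied by bin number.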

Row | Variant | protein stability index
1 | FEDEVKRLGWQQGAELQELEERLQ [Q13G] | 5.35
2 | FEDEVKRLGWQQDAELQELEERLQ [Q13D] | 4.76
3 | FEDEVKRLGWQQNAELQELEERLQ [Q13N] | 5.2
4 | FEDEVKRLGWQQSAELQELEERLQ [Q13S] | 5.01
5 | FEDEVKRLGWQQKAELQELEERLQ [Q13K] | 3.77
6 | FEDEVKRLGWQQPAELQELEERLQ [Q13P] | 5.11
7 | FEDEVKRLGWQQIAELQELEERLQ [Q13I] | 3.44
8 | FEDEVKRLGWQQAAELQELEERLQ [Q13A] | 4.31
9 | FEDEVKRLGWQQTAELQELEERLQ [Q13T] | 3.74
10 | FEDEVKRLGWQQLAELQELEERLQ [Q13L] | 3.5
11 | FEDEVKRLGWQQHAELQELEERLQ [Q13H] | 4.39
12 | FEDEVKRLGWQQVAELQELEERLQ [Q13V] | 3.86
13 | FEDEVKRLGWQQYAELQELEERLQ [Q13Y] | 3.58
14 | FEDEVKRLGWQQRAELQELEERLQ [Q13R] | 2.99
15 | FEDEVKRLGWQQCAELQELEERLQ [Q13C] | 4.83
16 | FEDEVKRLGWQQEAELQELEERLQ [Q13E] | 5.03
17 | FEDEVKRLGWQQWAELQELEERLQ [Q13W] | 3.67
18 | FEDEVKRLGWQQFAELQELEERLQ [Q13F] | 4.42
19 | FEDEVKRLGWQQMAELQELEERLQ [Q13M] | 2.6
20 | FEDEVKRLGWQQQAELGELEERLQ [Q17G] | 5.2
21 | FEDEVKRLGWQQQAELRELEERLQ [Q17R] | 4.71
22 | FEDEVKRLGWQQQAELKELEERLQ [Q17K] | 4.88
23 | FEDEVKRLGWQQQAELNELEERLQ [Q17N] | 5.34
24 | FEDEVKRLGWQQQAELTELEERLQ [Q17T] | 4.78

Row | Variant | protein stability index
25 | FEDEVKRLGWQQQAELIELEERLQ [Q17I] | 4.25
26 | FEDEVKRLGWQQQAELDELEERLQ [Q17D] | 3.55
27 | FEDEVKRLGWQQQAELCELEERLQ [Q17C] | 4.01
28 | FEDEVKRLGWQQQAELMELEERLQ [Q17M] | 4.57
29 | FEDEVKRLGWQQQAELFELEERLQ [Q17F] | 3.98
30 | FEDEVKRLGWQQQAELYELEERLQ [Q17Y] | 3.26
31 | FEDEVKRLGWQQQAELPELEERLQ [Q17P] | 4.91
32 | FEDEVKRLGWQQQAELAELEERLQ [Q17A] | 4.22
33 | FEDEVKRLGWQQQAELHELEERLQ [Q17H] | 4.34
34 | FEDEVKRLGWQQQAELVELEERLQ [Q17V] | 4.51
35 | FEDEVKRLGWQQQAELSELEERLQ [Q17S] | 4.75
36 | FEDEVKRLGWQQQAELWELEERLQ [Q17W] | 2.31
37 | FEDEVKRLGWQQQAELEELEERLQ [Q17E] | 3.12
38 | FEDEVKRLGWQQQAELLELEERLQ [Q17L] | 4.54
39 | FEDEVKRLGWQQQLELQELEERLQ [A14L] | 1.85
40 | FEDEVKRLGWQQQCELQELEERLQ [A14C] | 3
41 | FEDEVKRLGWQQQPELQELEERLQ [A14P] | 5.4
42 | FEDEVKRLGWQQQFELQELEERLQ [A14F] | 2.63
43 | FEDEVKRLGWQQQNELQELEERLQ [A14N] | 4.64
44 | FEDEVKRLGWQQQQELQELEERLQ [A14Q] | 4.61
45 | FEDEVKRLGWQQQIELQELEERLQ [A14I] | 1.73
46 | FEDEVKRLGWQQQSELQELEERLQ [A14S] | 4.44
47 | FEDEVKRLGWQQQGELQELEERLQ [A14G] | 5.26
48 | FEDEVKRLGWQQQMELQELEERLQ [A14M] | 4.37

Row | Variant | protein stability index
49 | FEDEVKRLGWQQQHELQELEERLQ [A14H] | 4.27
50 | FEDEVKRLGWQQQDELQELEERLQ [A14D] | 5.2
51 | FEDEVKRLGWQQQYELQELEERLQ [A14Y] | 2.29
52 | FEDEVKRLGWQQQWELQELEERLQ [A14W] | 2.53
53 | FEDEVKRLGWQQQKELQELEERLQ [A14K] | 5.32
54 | FEDEVKRLGWQQQTELQELEERLQ [A14T] | 2.53
55 | FEDEVKRLGWQQQRELQELEERLQ [A14R] | 4.7
56 | FEDEVKRLGWQQQEELQELEERLQ [A14E] | 5.64
57 | FEDEVKRLGSQQQAELQELEERLQ [W10S] | 4.84
58 | FEDEVKRLGPQQQAELQELEERLQ [W10P] | 5.11
59 | FEDEVKRLGQQQQAELQELEERLQ [W10Q] | 5.71
60 | FEDEVKRLGVQQQAELQELEERLQ [W10V] | 4.69
61 | FEDEVKRLGYQQQAELQELEERLQ [W10Y] | 4.86
62 | FEDEVKRLGTQQQAELQELEERLQ [W10T] | 5.13
63 | FEDEVKRLGRQQQAELQELEERLQ [W10R] | 5.5
64 | FEDEVKRLGWQVQAELQELEERLQ [Q12V] | 2.83
65 | FEDEVKRLGWQNQAELQELEERLQ [Q12N] | 4.8
66 | FEDEVKRLGWQIQAELQELEERLQ [Q12I] | 2.45
67 | FEDEVKRLGWQAQAELQELEERLQ [Q12A] | 3.83
68 | FEDEVKRLGWQWQAELQELEERLQ [Q12W] | 2.9
69 | FEDEVKRLGWQKQAELQELEERLQ [Q12K] | 4.03
70 | FEDEVKRLGWQYQAELQELEERLQ [Q12Y] | 2.31
71 | FEDEVKRLGWQHQAELQELEERLQ [Q12H] | 3.1
72 | FEDEVKRLGWQTQAELQELEERLQ [Q12T] | 3.45

Row | Variant | protein stability index
73 | FEDEVKRLGWQLQAELQELEERLQ [Q12L] | 2.85
74 | FEDEVKRLGWQRQAELQELEERLQ [Q12R] | 3
75 | FEDEVKRLGWQEQAELQELEERLQ [Q12E] | 4.09
76 | FEDEVKRLGWQGQAELQELEERLQ [Q12G] | 4.14
77 | FEDEVKRLGWQFQAELQELEERLQ [Q12F] | 2.78
78 | FEDEVKRLGWQSQAELQELEERLQ [Q12S] | 5.12
79 | FEDEVKRLGWQCQAELQELEERLQ [Q12C] | 2.14
80 | FEDEVKRLGWQDQAELQELEERLQ [Q12D] | 4.85
81 | FEDEVKRLGWQMQAELQELEERLQ [Q12M] | 3.13
82 | FEDEVKRLGWQPQAELQELEERLQ [Q12P] | 5.22
83 | FEDEVKRLGWQQQAELQEFEERLQ [L19F] | 4.12
84 | FEDEVKRLGWQQQAELQECEERLQ [L19C] | 4.43
85 | FEDEVKRLGWQQQAELQEQEERLQ [L19Q] | 4.17
86 | FEDEVKRLGWQQQAELQEIEERLQ [L19I] | 4.27
87 | FEDEVKRLGWQQQAELQEYEERLQ [L19Y] | 4.14
88 | FEDEVKRLGWQQQAELQEREERLQ [L19R] | 3.68
89 | FEDEVKRLGWQQQAELQEKEERLQ [L19K] | 3.24
90 | FEDEVKRLGWQQQAELQEGEERLQ [L19G] | 5.4
91 | FEDEVKRLGWQQQAELQEVEERLQ [L19V] | 4.53
92 | FEDEVKRLGWQQQAELQEHEERLQ [L19H] | 4.08
93 | FEDEVKRLGWQQQAELQEAEERLQ [L19A] | 3.48
94 | FEDEVKRLGWQQQAELQEEEERLQ [L19E] | 5.22
